According to PMC8669144, “Imaging of Glioblastoma Tumor-Associated Myeloid Cells Using Nanobodies Targeting Signal Regulatory Protein Alpha” (Frontiers in Immunology, 2021):
Where two headings read alike, the source gives them in different places. Blank lines part the entries; values can stand above or below the binder they belong to.

Legend:
[1] = molecular target: T1, recombinant ligand binding domain of mouse SIRPα (mSIRPα) (Mus musculus, strain  …, UniProt P97797)
[2] = molecular target: T2, recombinant ligand binding domain of mouse SIRPα (mSIRPα) (mouse); test: SPR
T2 chain: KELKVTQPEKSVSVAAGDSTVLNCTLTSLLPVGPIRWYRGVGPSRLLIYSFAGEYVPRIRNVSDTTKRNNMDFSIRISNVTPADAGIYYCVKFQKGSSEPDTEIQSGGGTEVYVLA

[3] = molecular target: T2, recombinant ligand binding domain of …; test: SPR
[4] = molecular target: T1, recombinant ligand binding domain of …; test: SPR; Biacore T200; recombinant antigen immobilised by amine coupling on a CM5 chip; nanobodies injected in 2-fold dilutions from 500 to 1.95 nM; 25°C; HBS (20 mM HEPES pH 7.4, 150 mM NaCl, 0.005% Tween-20, 3.4 mM EDTA); 1:1 binding model; conditions: both partners purified
[5] = molecular target: T3, mouse SIRPα natively expressed on RAW 264.7 macrophages (Mus musculus, endogenous in RAW 264.7 …, UniProt P97797); test: flow cytometry on cells; 1 µg purified nanobody with 2 x 10^5 RAW 264.7 cells, 4°C, 1 h; detected with AF488 anti-HA antibody; threshold triple ΔMFI of the non-targeting BabA Nb19; conditions: one partner purified
T3 construct: also called native murine SIRPα; cell-membrane mSIRPα; source: endogenous, on RAW 264.7 cells

[6] = molecular target: T2, recombinant ligand binding domain of …; test: SPR
[7] = molecular target: T3, mouse SIRPα natively expressed on RAW …; test: radioligand binding; 99mTc-labeled nanobodies at 2, 20 and 200 nM on adherent RAW 264.7 cells, 1 h, 4°C; aspecific binding with 100x molar excess of unlabeled Nb; conditions: one partner purified
[8] = molecular target: T2, recombinant ligand binding domain of …; test: SPR

T1 sequence (P97797 whole entry, looked up, the tested form may be a part): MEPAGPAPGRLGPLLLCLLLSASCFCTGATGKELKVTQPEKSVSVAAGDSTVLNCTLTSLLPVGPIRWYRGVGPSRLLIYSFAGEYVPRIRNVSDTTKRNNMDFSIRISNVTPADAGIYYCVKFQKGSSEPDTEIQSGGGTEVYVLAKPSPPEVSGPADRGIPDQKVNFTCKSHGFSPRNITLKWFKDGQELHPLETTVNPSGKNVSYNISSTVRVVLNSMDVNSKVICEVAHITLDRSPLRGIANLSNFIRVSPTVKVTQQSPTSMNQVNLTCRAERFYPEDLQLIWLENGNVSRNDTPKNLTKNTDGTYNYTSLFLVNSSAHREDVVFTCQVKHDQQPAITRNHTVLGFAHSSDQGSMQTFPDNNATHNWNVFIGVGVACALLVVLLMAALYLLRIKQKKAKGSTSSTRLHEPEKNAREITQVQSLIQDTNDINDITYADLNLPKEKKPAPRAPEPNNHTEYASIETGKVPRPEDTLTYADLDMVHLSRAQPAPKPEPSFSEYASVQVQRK

B1: Nb 53 (VHH)
VHH: QVQLQESGGGSVQAGGSLRLSCAASGYTYSDYCMGWFRQAPGKEREVVAEINIVDGDTYYADSVKGRFTISQDNAKNTVYLRMNSLKPDDTAIYVCAATGRRCQGYNSWGQGTQVTVSS
- binding result [1]: binds

B4: anti-mSIRPα nanobody Nb89 as used in SPR and epitope binning (VHH)
VHH: QVQLQESGGGLVQPGGSLRLSCAASGFAFSRNSMRWVRQAPGKGLEWVSSISSDGKYTYYTDSVKGRFAISRDNANNTLYLQMNSLKSEDTALYYCSTGGAPASQGTQVTVSS
notes: source: E. coli WK6, periplasmic extraction, purified (IMAC, SEC)
- koff [2]: 0.0087 s⁻¹
- Kd [3]: 6.9 nM
- binding result [4]: binds

B5: anti-mSIRPα nanobody Nb89, HA- and His6-tagged (pMECS) (VHH)
VHH: QVQLQESGGGLVQPGGSLRLSCAASGFAFSRNSMRWVRQAPGKGLEWVSSISSDGKYTYYTDSVKGRFAISRDNANNTLYLQMNSLKSEDTALYYCSTGGAPASQGTQVTVSS
notes: also called clone 89; source: E. coli WK6, periplasmic extraction, purified (IMAC, SEC)
- binding result [5]: binds

B6: Nb 25 (VHH)
VHH: QVQLQESGGGSVQAGGSLRLSCAASGHSFTLDCMGWFRQAPGKERESVAEINMYSGNTYYADSVKGRFTISRDSAKSTVNLQMNSLKPEDTAIYFCAAAPTCARWDYRGQGTQVTVSS
- binding result [1]: binds

B10: monovalent anti-mSIRPα nanobody Nb15, His6-tagged (VHH)
VHH: QVQLQESGGGSVQAGGSLRLSCATSGLTYSAYCMGWFRQAPGKGRETVAQINLGDGDTYYADSVKGRFAISQDNAKNTVHLLMNGLKPEDTAIYYCAGSDHMCAKWHYWGQGTQVTVSS
notes: both carry a C-terminal His6; also called monovalent Nb15; anti-SIRPα Nb15; source: E. coli WK6, periplasmic extraction, purified (IMAC, SEC); not shown: His6, C-terminal, kept
- binding result [4]: binds
- binding result [7]: binds

B12: bivalent anti-SIRPα Nb15 (pHEN25 construct, dimerised through a cysteine) (VHH)
VHH: EVQLQESGGGSVQAGGSLRLSCATSGLTYSAYCMGWFRQAPGKGRETVAQINLGDGDTYYADSVKGRFAISQDNAKNTVHLLMNGLKPEDTAIYYCAGSDHMCAKWHYWGQGTQVTVSS
notes: as the VHH of m7 (Nb15); fourteen amino acid long linker and a cysteine after the His6 tag (pHEN25); The cysteine allows dimerization; The order of His6 tag, linker and cysteine is worded loosely; also called bivalent Nb15; bivalent construct of Nb15; source: E. coli WK6 (pHEN25), periplasmic extraction, purified (IMAC, SEC); not shown: His6, C-terminal, kept
- binding result [4]: binds
- binding result [7]: binds

B14: Nb 42 (VHH)
VHH: QVQLQESGGGSVQAGGSLRLSCAASGFTYSNYCMAWFRQAPGKERESVAQINNNDGDTYYAASVKGRFTISQDNAKNPVYLQMDSLKPEDTAMYYCAASDSRCLEYKYWGQGTQVTVSS
- binding result [1]: binds

B15: Nb 1 (VHH)
VHH: QVQLQESGGGSVQAGGSLRLSCSASGHMYGSVIGWFRQAPGKEREGVAAIYTYDGSEYYADSVKGRFTVSQDTQDNAKNTVYLQMSSLNVEDTAMYYCAVGFPLGRLTTVRVLASNEYKYGTQVTVSS
- binding result [1]: binds

B17: Nb 75 (VHH)
VHH: QVQLQESGGGLVQPGDSLRLSCAASEFAFSSYFMSWVRQAPGKGLEWVSGINTDGSMTYYSDSVKGRFTISRDNAKNTLYLQMNSLKSEDTALYYCVLRGVFSDYALQSQGTQVTVSS
- binding result [1]: binds

B18: Nb 12 (VHH)
VHH: QVQLQESGGGSVQAGGSVKLSCATSGLTYSAYCMGWFRQAPGKGRETVAQINLGDGDTYYADSVKGRFTISLDNARNTVYLQMNSLKPEDTAIYYCAATYSSRCASFGYWGQGTQVTVSS
- binding result [1]: binds

B20: Nb 35 (VHH)
VHH: QVQLQESGGGSVQAGGSLRLSCAASGYSYSSTCMAWFRQVPGKEREGVASINNSGTATYYADSVKGRFTISRDNAKNTLYLLMDNLKPEDTAIYYCAASLRRGQDCLGAIDYWGQGTQVTVSS
- binding result [1]: binds

Results, then the binder that gave them:

- binding result [1]: binds
B2: Nb 47 (VHH)
VHH: QVQLQESGGGSVQAGGSLRLSCAASGFTYSLYCMGWFRQAPGKEREKVAEMDKSSGDTDYADSVKGRFTISQDNAKNTVYLMMNSLKPEDTAIYYCAATGYRCQGYNAWGQGTQVTVSS

- binding result [1]: binds
B3: Nb 52 (VHH)
VHH: QVQLQESGGGSVQAGGSLRLSCAASGFTYSNYCMAWLRQAPGKERESVAQININDGDTYYAASVKGRFTISQDNAKNTVYLMMNSLKPEDTAIYYCAATGYGCQGYNAWGQGTQVTVSS

- binding result [1]: binds
B7: Nb 26 (VHH)
VHH: QVQLQESGGGSVQAGGSLRLSCATSGLTYTAYCMGWFRQAPGKGRETVAQINLGDGDTYYADSVKGRFAISQDNAKNTVYLLMNSLQPEDTAIYYCATTDGRCQKWQYWGQGTQVTVSS

- koff [2]: 0.00809 s⁻¹
- Kd [3]: 49.4 nM
- Kd [6]: 109 nM
B8: monovalent anti-mSIRPα nanobody Nb15, His6-tagged (VHH)
VHH: QVQLQESGGGSVQAGGSLRLSCATSGLTYSAYCMGWFRQAPGKGRETVAQINLGDGDTYYADSVKGRFAISQDNAKNTVHLLMNGLKPEDTAIYYCAGSDHMCAKWHYWGQGTQVTVSS
modifications: 99mTc tricarbonyl at the His6-tag (in the radioligand binding assay only)

- binding result [5]: binds
B9: anti-mSIRPα nanobody Nb15, HA- and His6-tagged (pMECS) (VHH)
VHH: QVQLQESGGGSVQAGGSLRLSCATSGLTYSAYCMGWFRQAPGKGRETVAQINLGDGDTYYADSVKGRFAISQDNAKNTVHLLMNGLKPEDTAIYYCAGSDHMCAKWHYWGQGTQVTVSS
notes: An alpaca and two dromedaries were immunised; also called clone 15; source: E. coli WK6, periplasmic extraction, purified (IMAC, SEC)

- koff [8]: 0.00733 s⁻¹
- Kd [6]: 57.4 nM
B11: bivalent anti-SIRPα Nb15 (pHEN25 construct, dimerised through a cysteine) (VHH)
VHH: EVQLQESGGGSVQAGGSLRLSCATSGLTYSAYCMGWFRQAPGKGRETVAQINLGDGDTYYADSVKGRFAISQDNAKNTVHLLMNGLKPEDTAIYYCAGSDHMCAKWHYWGQGTQVTVSS
modifications: 99mTc tricarbonyl at the His6-tag (in the radioligand binding assay only)

- binding result [1]: binds
B13: Nb 3 (VHH)
VHH: QVQLQESGGGSVQAGGSLRLSCAAFGFTYSNYCVTWFRQAPGKERERVASIDRSNGDTLYTESVKGRFTISQDNAKNTVSLVMNSLKPEDTAIYYCAATDRYCADWRTWGQGTQVTVSS

- binding result [1]: binds
B16: Nb 33 (VHH)
VHH: QVQLQESGGGLVQPGGSLRLSCAASGFTFSSYFMSWVRQAPGKGLEWVSGINSDGSMTYYLDSVKGRFTMSRDNAKNTLYLEMNSLKSEDTALYYCALRGVFSDYALHSQGTQVTVSS

- binding result [1]: binds
B19: Nb 92 (VHH)
VHH: QVQLQESGGGSVQAGGSLRLSCAASGYISSTSYVGWFRQAPGKEREKVAEARSGGDYTWYADSVKGRFTISQDNAKNTVYLQMNSLKPEDTAIYYCAAGEFGGPYNNWGQGTQVTVSS

- koff [2]: 0.221 s⁻¹
- Kd [3]: 354 nM
- binding result [4]: binds
B21: anti-mSIRPα nanobody Nb54 as used in SPR and epitope binning (VHH)
VHH: QVQLQESGGGSVQAGGSLRLSCSASGHMYGSVIGWFRQAPGKERVGVAAIYTYAGSEYYADSVKGRFTVSQDTQDNAKNTVYLQMSSLNVEDTAMYYCAVGFPLGRLTTVRTLASNEYKYWGQGTQVTVSS
notes: as for B4

- binding result [5]: binds
B22: anti-mSIRPα nanobody Nb54, HA- and His6-tagged (pMECS) (VHH)
VHH: QVQLQESGGGSVQAGGSLRLSCSASGHMYGSVIGWFRQAPGKERVGVAAIYTYAGSEYYADSVKGRFTVSQDTQDNAKNTVYLQMSSLNVEDTAMYYCAVGFPLGRLTTVRTLASNEYKYWGQGTQVTVSS
notes: also called clone 54; source: E. coli WK6, periplasmic extraction, purified (IMAC, SEC)
